Drawing on patent US20120258090, this text covers activation of prothrombin for one protein.

The target of series [1] is fully carboxylated recombinant human prothrombin, P00734.
Series [2] deals with incompletely carboxylated recombinant human prothrombin, P00734.

B1: recombinant ecarin (activated, in CHO-S culture supernatant) (protein)
chain: VPPHERKFEKKFIELVVVVDHSMVTKYNNDSTAIRTWIYEMLNTVNEIYLPFNIRVALVGLEFWCNGDLINVTSTADDTLHSFGEWRASDLLNRKRHDHAQLLTNVTLDHSTLGITFVYGMCKSDRSVELILDYSNITFNMAYIIAHEMGHSLGMLHDTKFCTCGAKPCIMFGKESIPPPKEFSSCSYDQYNKYLLKYNPKCILDPPLRKDIASPAVCGNEIWEEGEECDCGSPADCRNPCCDAATCKLKPGAECGNGECCDKCKIRKAGTECRPARDDCDVAEHCTGQSAECPRNEFQRNGQPCLNNSGYCYNGDCPIMLNQCIALFSPSATVAQDSCFQRNLQGSYYGYCTKEIGYYGKRFPCAPQDVKCGRLYCLDNSFKKNMRCKNDYSYADENKGIVEPGTKCEDGKVCINRKCVDVNTAY
For B1, the activation of prothrombin result was “the recombinant ecarin is able to efficiently activate both the fully carboxylated and the incompletely carboxylated prothrombins” in series [1]; “the recombinant ecarin is able to efficiently activate both the fully carboxylated and the incompletely carboxylated prothrombins” in series [2].
